Measured values as given in publication PMC9482650, “Quantitative fragmentomics allow affinity mapping of interactomes” (Nature Communications, 2022).
One block for each binder: values may come before it.

Columns and labels:
Test in all cases: holdup assay
Design in all cases: key: below the threshold = too weak to quantify, mostly under pKd 3.1 to 4
MAGI2_2, Q86UL8 = target: MAGI2_2, Q86UL8
TX1BP3, O14907 = target: T1, TX1BP3, O14907
T1 sequence (O14907 10-122, limits assumed, looked up): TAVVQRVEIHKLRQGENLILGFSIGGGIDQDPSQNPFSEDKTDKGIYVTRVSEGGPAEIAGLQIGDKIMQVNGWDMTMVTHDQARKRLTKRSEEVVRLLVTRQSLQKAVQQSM

MPP2, Q14168 = target: T2, MPP2, Q14168
T2 sequence (Q14168 180-250, limits assumed, looked up): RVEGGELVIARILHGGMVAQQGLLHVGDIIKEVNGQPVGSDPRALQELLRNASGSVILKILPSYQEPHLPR

MAST2, Q6P0Q8 = target: MAST2, Q6P0Q8
LDB3, O75112 = target: LDB3, O75112
HTRA3, P83110 = target: T3, HTRA3, P83110
T3 sequence (P83110 354-453, limits assumed, looked up): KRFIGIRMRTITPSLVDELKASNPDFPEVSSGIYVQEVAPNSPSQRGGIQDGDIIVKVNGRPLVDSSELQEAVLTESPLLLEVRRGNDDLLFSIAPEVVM

GIPC2, Q8TF65 = target: GIPC2, Q8TF65
GRIP1_7, Q9Y3R0 = target: T4, GRIP1_7, Q9Y3R0
T4 sequence (Q9Y3R0 999-1096, limits assumed, looked up): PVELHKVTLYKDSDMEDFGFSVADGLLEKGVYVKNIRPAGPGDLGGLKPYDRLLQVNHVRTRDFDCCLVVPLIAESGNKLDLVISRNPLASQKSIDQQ

SCRIB_2, Q14160 = target: SCRIB_2, Q14160
SCRIB_3, Q14160 = target: SCRIB_3, Q14160
MPP6, Q9NZW5 = target: T5, MPP6, Q9NZW5
T5 sequence (Q9NZW5 125-219, limits assumed, looked up): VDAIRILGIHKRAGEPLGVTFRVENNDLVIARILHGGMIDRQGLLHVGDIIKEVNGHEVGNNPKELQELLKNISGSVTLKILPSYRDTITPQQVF

GRID2IP_1, A4D2P6 = target: GRID2IP_1, A4D2P6
TJP3_3, O95049 = target: T6, TJP3_3, O95049
T6 sequence (O95049 375-456, limits assumed, looked up): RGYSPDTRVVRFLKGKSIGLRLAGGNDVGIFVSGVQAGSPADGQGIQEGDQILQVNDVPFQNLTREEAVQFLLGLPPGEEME

SNTA1, Q13424 = target: T7, SNTA1, Q13424
T7 sequence (Q13424 82-180, limits assumed, looked up): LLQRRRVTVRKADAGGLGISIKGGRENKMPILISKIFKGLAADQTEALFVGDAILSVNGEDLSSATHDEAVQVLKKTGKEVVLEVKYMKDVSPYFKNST

GRID2IP_2, A4D2P6 = target: GRID2IP_2, A4D2P6
GRIP2_7, Q9C0E4 = target: GRIP2_7, Q9C0E4
SNTB1, Q13884 = target: T8, SNTB1, Q13884
T8 sequence (Q13884 107-205, limits assumed, looked up): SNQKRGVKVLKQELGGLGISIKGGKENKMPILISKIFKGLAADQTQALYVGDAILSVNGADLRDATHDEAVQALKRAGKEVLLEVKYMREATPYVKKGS

SCRIB_1, Q14160 = target: SCRIB_1, Q14160
GRIP2_5, Q9C0E4 = target: GRIP2_5, Q9C0E4
DLG4_3, P78352 = target: DLG4_3, P78352
DFNB31_2, Q9P202 = target: T9, DFNB31_2, Q9P202
T9 sequence (Q9P202 274-371, limits assumed, looked up): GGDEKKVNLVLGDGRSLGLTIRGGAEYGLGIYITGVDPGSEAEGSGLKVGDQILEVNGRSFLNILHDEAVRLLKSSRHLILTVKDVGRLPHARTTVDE

FRMPD1, Q5SYB0 = target: T10, FRMPD1, Q5SYB0
T10 sequence (Q5SYB0 52-145, limits assumed, looked up): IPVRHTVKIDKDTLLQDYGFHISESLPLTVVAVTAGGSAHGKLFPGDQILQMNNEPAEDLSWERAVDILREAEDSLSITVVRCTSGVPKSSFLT

ARHGEF12, Q9NZN5-2 = target: ARHGEF12, Q9NZN5-2
DLG4_1, P78352 = target: DLG4_1, P78352
PDZRN3_1, Q9UPQ7 = target: T11, PDZRN3_1, Q9UPQ7
T11 sequence (Q9UPQ7 244-349, limits assumed, looked up): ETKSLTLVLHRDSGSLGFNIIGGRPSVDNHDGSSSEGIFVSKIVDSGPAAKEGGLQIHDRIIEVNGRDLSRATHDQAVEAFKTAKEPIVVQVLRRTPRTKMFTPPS

LNX1_1, Q8TBB1 = target: LNX1_1, Q8TBB1
GRIP2_6, Q9C0E4 = target: GRIP2_6, Q9C0E4
[1] = plain residues with an end cap or a label only (N-terminal biotin on a linker: ahx)
[2] = plain residues with an end cap or a label only (N-terminal biotin on a linker: ttds)

Sequence of LDB3, O75112 (O75112 1-94): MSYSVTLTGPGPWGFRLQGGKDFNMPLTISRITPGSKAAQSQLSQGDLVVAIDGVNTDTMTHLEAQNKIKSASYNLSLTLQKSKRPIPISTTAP
Sequence of GRID2IP_2, A4D2P6 (A4D2P6 272-370): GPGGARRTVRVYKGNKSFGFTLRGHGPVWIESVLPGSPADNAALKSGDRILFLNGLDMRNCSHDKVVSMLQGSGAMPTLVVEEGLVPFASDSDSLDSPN
Sequence of MAST2, Q6P0Q8 (Q6P0Q8 1099-1202): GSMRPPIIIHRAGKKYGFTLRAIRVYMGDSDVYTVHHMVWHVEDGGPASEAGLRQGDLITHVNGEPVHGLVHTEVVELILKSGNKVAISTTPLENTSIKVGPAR
Sequence of GRIP2_7, Q9C0E4 (Q9C0E4 934-1023): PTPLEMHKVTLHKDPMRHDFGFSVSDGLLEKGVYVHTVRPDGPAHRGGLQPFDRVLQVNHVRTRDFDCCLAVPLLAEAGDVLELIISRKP
Sequence of GRID2IP_1, A4D2P6 (A4D2P6 1-87): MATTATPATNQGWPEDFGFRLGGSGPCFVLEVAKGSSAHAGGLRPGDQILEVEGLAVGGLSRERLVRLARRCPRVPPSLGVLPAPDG
Sequence of DLG4_1, P78352 (P78352 62-152): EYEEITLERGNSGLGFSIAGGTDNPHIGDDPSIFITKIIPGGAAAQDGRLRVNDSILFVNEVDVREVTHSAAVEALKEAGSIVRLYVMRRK
Sequence of GIPC2, Q8TF65 (Q8TF65 112-203): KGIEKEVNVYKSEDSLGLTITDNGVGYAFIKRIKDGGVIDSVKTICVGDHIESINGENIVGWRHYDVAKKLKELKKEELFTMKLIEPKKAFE
Sequence of ARHGEF12, Q9NZN5-2 (Q9NZN5 other isoform, or with tags, fused parts or gaps): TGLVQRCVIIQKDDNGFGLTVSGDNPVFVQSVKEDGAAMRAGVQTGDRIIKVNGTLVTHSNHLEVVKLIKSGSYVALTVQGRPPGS
Sequence of SCRIB_1, Q14160 (Q14160 718-814): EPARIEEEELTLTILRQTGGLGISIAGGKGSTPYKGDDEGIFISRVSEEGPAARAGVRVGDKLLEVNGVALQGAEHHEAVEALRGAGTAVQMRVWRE
Sequence of GRIP2_6, Q9C0E4 (Q9C0E4 648-740): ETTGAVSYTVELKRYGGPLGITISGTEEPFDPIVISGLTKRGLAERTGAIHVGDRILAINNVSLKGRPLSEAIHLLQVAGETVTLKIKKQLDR
Sequence of MAGI2_2, Q86UL8 (Q86UL8 410-522): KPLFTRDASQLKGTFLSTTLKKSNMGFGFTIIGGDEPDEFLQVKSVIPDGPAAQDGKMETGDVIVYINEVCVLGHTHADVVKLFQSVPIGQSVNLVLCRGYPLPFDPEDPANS
Sequence of GRIP2_5, Q9C0E4 (Q9C0E4 544-642): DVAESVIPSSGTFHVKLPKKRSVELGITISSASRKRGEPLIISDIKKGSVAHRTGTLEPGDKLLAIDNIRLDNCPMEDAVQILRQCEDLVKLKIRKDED
Sequence of DLG4_3, P78352 (P78352 306-403): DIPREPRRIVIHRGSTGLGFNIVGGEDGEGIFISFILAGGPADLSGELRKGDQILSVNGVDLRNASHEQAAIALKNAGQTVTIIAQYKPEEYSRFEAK
Sequence of LNX1_1, Q8TBB1 (Q8TBB1 261-371): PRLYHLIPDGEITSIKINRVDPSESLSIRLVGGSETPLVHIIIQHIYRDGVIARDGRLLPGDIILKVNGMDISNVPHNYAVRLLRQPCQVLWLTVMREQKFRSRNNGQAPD
Sequence of SCRIB_2, Q14160 (Q14160 857-960): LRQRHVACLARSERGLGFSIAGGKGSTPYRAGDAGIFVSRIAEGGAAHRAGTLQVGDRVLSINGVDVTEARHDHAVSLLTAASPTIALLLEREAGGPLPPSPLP
Sequence of SCRIB_3, Q14160 (Q14160 999-1103): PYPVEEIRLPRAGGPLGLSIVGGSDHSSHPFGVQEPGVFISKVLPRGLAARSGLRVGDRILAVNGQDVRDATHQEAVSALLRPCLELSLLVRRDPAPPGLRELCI

- pKd (MAGI2_2, Q86UL8; [1]): below the threshold
- pKd (TX1BP3, O14907; [1]): below the threshold
- pKd (MPP2, Q14168; [1]): below the threshold
- pKd (MAST2, Q6P0Q8; [1]): 4.5
- pKd (LDB3, O75112; [1]): below the threshold
- pKd (HTRA3, P83110; [1]): below the threshold
- pKd (GIPC2, Q8TF65; [1]): below the threshold
- pKd (GRIP1_7, Q9Y3R0; [1]): below the threshold
- pKd (SCRIB_2, Q14160; [1]): below the threshold
- pKd (SCRIB_3, Q14160; [1]): below the threshold
- pKd (MPP6, Q9NZW5; [1]): below the threshold
- pKd (GRID2IP_1, A4D2P6; [1]): below the threshold
- pKd (TJP3_3, O95049; [1]): below the threshold
- pKd (SNTA1, Q13424; [1]): below the threshold
- pKd (GRID2IP_2, A4D2P6; [1]): below the threshold
- pKd (GRIP2_7, Q9C0E4; [1]): below the threshold
- pKd (SNTB1, Q13884; [1]): below the threshold
- pKd (SCRIB_1, Q14160; [1]): below the threshold
- pKd (GRIP2_5, Q9C0E4; [1]): below the threshold
- pKd (DLG4_3, P78352; [1]): below the threshold
- pKd (DFNB31_2, Q9P202; [1]): below the threshold
- pKd (FRMPD1, Q5SYB0; [1]): below the threshold
- pKd (ARHGEF12, Q9NZN5-2; [1]): 3.98
- pKd (DLG4_1, P78352; [1]): below the threshold
- pKd (PDZRN3_1, Q9UPQ7; [1]): below the threshold
- pKd (LNX1_1, Q8TBB1; [1]): below the threshold
- pKd (GRIP2_6, Q9C0E4; [1]): below the threshold
B1: NHERF1, O14745 (peptide)
chain: SKKNELFSNL

- pKd (MAGI2_2, Q86UL8; [2]): 4.33
- pKd (TX1BP3, O14907; [2]): 5.24
- pKd (MPP2, Q14168; [2]): below the threshold
- pKd (MAST2, Q6P0Q8; [2]): 5.44
- pKd (LDB3, O75112; [2]): 3.92
- pKd (HTRA3, P83110; [2]): below the threshold
- pKd (GIPC2, Q8TF65; [2]): 4.04
- pKd (GRIP1_7, Q9Y3R0; [2]): below the threshold
- pKd (SCRIB_2, Q14160; [2]): 5.14
- pKd (SCRIB_3, Q14160; [2]): 5.71
- pKd (MPP6, Q9NZW5; [2]): below the threshold
- pKd (GRID2IP_1, A4D2P6; [2]): below the threshold
- pKd (TJP3_3, O95049; [2]): below the threshold
- pKd (SNTA1, Q13424; [2]): 5.19
- pKd (GRID2IP_2, A4D2P6; [2]): 4.54
- pKd (GRIP2_7, Q9C0E4; [2]): below the threshold
- pKd (SNTB1, Q13884; [2]): 5.41
- pKd (SCRIB_1, Q14160; [2]): 5.76
- pKd (GRIP2_5, Q9C0E4; [2]): below the threshold
- pKd (DLG4_3, P78352; [2]): below the threshold
- pKd (DFNB31_2, Q9P202; [2]): below the threshold
- pKd (FRMPD1, Q5SYB0; [2]): below the threshold
- pKd (ARHGEF12, Q9NZN5-2; [2]): 5.22
- pKd (DLG4_1, P78352; [2]): 4.29
- pKd (PDZRN3_1, Q9UPQ7; [2]): 5.87
- pKd (LNX1_1, Q8TBB1; [2]): 3.97
- pKd (GRIP2_6, Q9C0E4; [2]): below the threshold
B2: SLC15A5, A6NIM6 (peptide)
chain: SSIDLWETAL
